The values below are quoted from earlier work in PMC5627252.

By Kd is commonly meant the equilibrium constant for the complex coming apart.

Series [1] deals with FcγRIIIa (Homo sapiens) (UniProt P08637).
Series [2] has the same target. This is another data set of the same source.
Series [3] has the same target. The source holds these as a separate data set.

Read-outs that look alike come from different tables or passages of the source.

FcγRIIIa (Homo sapiens), sequence (P08637 17-254): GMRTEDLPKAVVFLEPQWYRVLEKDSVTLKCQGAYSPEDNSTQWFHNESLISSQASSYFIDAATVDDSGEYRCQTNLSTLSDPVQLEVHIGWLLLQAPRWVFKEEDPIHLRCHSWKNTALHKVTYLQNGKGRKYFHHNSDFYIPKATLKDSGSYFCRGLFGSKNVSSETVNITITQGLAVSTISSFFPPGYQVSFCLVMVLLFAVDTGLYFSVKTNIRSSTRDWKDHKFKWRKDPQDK

As for IgG1 Fc-GlcNAc Fc (from UniProt P01857), the Kd with FcγRIIIa (Homo sapiens) [1] is 995 nM.
In the case of IgG1 Fc-Man5 Fc (from UniProt P01857), the Kd in the series with FcγRIIIa (Homo sapiens) [2] was 32 nM.
For IgG1 Fc-Man8 Fc (from UniProt P01857), the Kd with FcγRIIIa (Homo sapiens) [3] was 26 nM.
